The text below walks through data of article PMC11398520 (bioRxiv, 2024).

Series [1] addresses PS2 S-layer protein of Corynebacterium glutamicum (ex-vivo S-layer) (Corynebacterium glutamicum). The series can be described thus: cryo-EM structure.
The series “negative-stain EM” deals with the molecule itself. The series can be described thus: negative-stain EM.

Molecule “PS2 S-layer protein of Corynebacterium glutamicum (ex-vivo S-layer) (natural protein)” displayed a stoichiometry N in series [1] of 6.

B1: PS2 assembly domain (PS2^AD; residues 30 to 483) (domain or fragment)
chain: AQETNPTFNITNGFNDADGSTIQPVGPVNHTEETLRDLTDSTGAYLEEFQNGTVEEIVEAYLQVQASADGFDPSEQAAYEAFEAARVRASQELAASAETITKTRESVAYALKVDQEATAAFEAYRNALRDAAISINPDGSINPDTSINLLIDAANAANRTDRAEIEDYAHLYTQTDIALETPQLAYAFQDLKALQAEVDADFEWLGEFGIDQEDGNYVQRYHLPAVEALKAEVDARVAAIEPLRADSIAKNLEAQKSDVLVRQLFLERATAQRDTLRVVEAIFSTSARYVELYENVENVNVENKTLRQHYSALIPNLFIAAVANISELNAADAEAAAYYLHWDTDLATNDEDEAYYKAKLDFAIETYAKILFNGEVWQEPLAYVQNLDAGARQEAADREAARAADEAYRAEQLRIAQEAADAQKAIAEALAKEAEGNNDNSSDNTETGSSDIGS
As to B1, in the series “negative-stain EM”, the binding result is on record as “binds”.
